± gives the standard deviation of the averaged measurements.
System: ATP
Assay: switch fluorescence ratio, 500 uM ATP over buffer (Cy3 cluster intensity, sum of 5 cycles each) (fold (ratio)); higher = stronger signal-on switching upon ATP binding; sequences stand for … in TCGTCGGCAGCGTCAGATGTGTATAAGAGACAGTTTTTTTTTTTTTTTTTTTTTTTTT…TC
Conditions: aptamer strand: ATP DNA aptamer (quencher-CACCTGGGGGAGTATTGCGGAGGAAGG + anchor), 100 nM annealed; ATP concentration: 500 uM
Outline: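 Cy3-labelled switching-strand clusters on a modified Illumina MiSeq flow-cell were annealed to 100 nM quencher-labelled ATP aptamer, imaged in selection buffer, then imaged after 15 min with 500 uM ATP at 22 °C. Five buffer/ATP cycles ran, with NaOH stripping and re-annealing between them. The fluorescence ratio is summed target-cycle over summed buffer-cycle Cy3 intensity per cluster, averaged per switch-domain sequence. Clusters outside 100-1000 RFU were excluded.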
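Note: ATP exposure 15 min at 22 °C before imaging.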

| Sequence | switch fluorescence ratio |
| --- | --- |
| TTAGGTTTAT | 0.986 ± 0.013 |
| TTAGGTTTCT | 1 ± 0.011 |
| TTAGGTTTGC | 1 ± 0.032 |
| TTAGTAATAT | 1.17 ± 0.12 |
| TTAGTACCAT | 1.01 ± 0.028 |
| TTAGTACTGA | 1.05 ± 0.035 |
| TTAGTAGGGT | 0.983 ± 0.04 |
| TTAGTAGGTC | 0.992 ± 0.047 |
| TTAGTAGTGT | 0.973 ± 0.0063 |
| TTAGTATGCT | 0.9864 ± 0.0082 |
| TTAGTCGTGC | 1.01 ± 0.026 |
| TTAGTCTGAT | 1 ± 0.038 |
| TTAGTCTGTT | 0.99 ± 0.022 |
| TTAGTGAAGG | 1.01 ± 0.023 |
| TTAGTGGAAT | 0.9552 ± 0.0073 |
| TTAGTGGGGA | 1.01 ± 0.039 |
| TTAGTGGTAC | 1.15 ± 0.044 |
| TTAGTGTAAT | 1.01 ± 0.025 |
| TTAGTGTATC | 0.982 ± 0.059 |
| TTAGTGTCTT | 0.976 ± 0.025 |
| TTAGTTGGAT | 1.04 ± 0.029 |
| TTAGTTGGGA | 0.9828 ± 0.0087 |
| TTAGTTTCGG | 1.01 ± 0.019 |
| TTAGTTTTAT | 1 ± 0.027 |
| TTAGTTTTTC | 1.01 ± 0.032 |
| TTATAAACCT | 1.99 ± 1.4 |

| Sequence | switch fluorescence ratio |
| --- | --- |
| TTATAAGGG | 0.9843 ± 0.0022 |
| TTATAAGTAG | 1.01 ± 0.02 |
| TTATAATGTG | 1.009 ± 0.01 |
| TTATAATTAG | 0.994 ± 0.046 |
| TTATAATTGA | 1.02 ± 0.031 |
| TTATAATTTT | 0.965 ± 0.044 |
| TTATACACAT | 1.06 ± 0.023 |
| TTATACAGGA | 1.019 ± 0.0057 |
| TTATACCTTA | 1.065 ± 0.0043 |
| TTATACGGCT | 1.11 ± 0.092 |
| TTATACGTAT | 1.04 ± 0.037 |
| TTATAGGGAC | 1 ± 0.015 |
| TTATAGGGGT | 1.09 ± 0.057 |
| TTATAGGTAT | 0.9803 ± 0.0054 |
| TTATAGTCAT | 0.965 ± 0.027 |
| TTATATACAG | 1.058 ± 0.0062 |
| TTATATATGC | 0.986 ± 0.028 |
| TTATATCTAC | 1.004 ± 0.0045 |
| TTATATGGGG | 1 ± 0.018 |
| TTATATGGGT | 0.999 ± 0.013 |
| TTATATTCGC | 1.02 ± 0.084 |
| TTATATTGGA | 0.971 ± 0.017 |
| TTATCAGTTG | 1.01 ± 0.057 |
| TTATCATCCG | 1.08 ± 0.038 |
| TTATCCGGTT | 1.01 ± 0.012 |
| TTATCGAATG | 0.965 ± 0.065 |

| Sequence | switch fluorescence ratio |
| --- | --- |
| TTATCGAGTT | 1.03 ± 0.015 |
| TTATCGATGA | 1 ± 0.03 |
| TTATCGCTGC | 1.06 ± 0.11 |
| TTATCGGACG | 0.969 ± 0.084 |
| TTATCGGGTT | 0.973 ± 0.036 |
| TTATCGTGC | 0.9864 ± 0.0071 |
| TTATCGTTTG | 1.02 ± 0.043 |
| TTATCTAGTT | 1 ± 0.054 |
| TTATCTGTTA | 1.014 ± 0.0018 |
| TTATGAGGGT | 0.982 ± 0.015 |
| TTATGATGGA | 0.991 ± 0.013 |
| TTATGATTTA | 0.9434 ± 0.0029 |
| TTATGCGATT | 1 ± 0.022 |
| TTATGGAAGG | 1.03 ± 0.02 |
| TTATGGCATC | 0.974 ± 0.029 |
| TTATGGCGCC | 0.9862 ± 0.0046 |
| TTATGGGAAA | 1.02 ± 0.023 |
| TTATGGTCCG | 0.976 ± 0.045 |
| TTATGGTGCT | 0.945 ± 0.051 |
| TTATGGTTTT | 1 ± 0.024 |
| TTATGTACGT | 1.09 ± 0.021 |
| TTATGTACTT | 1.05 ± 0.021 |
| TTATGTATGC | 0.95 ± 0.08 |
| TTATGTATTT | 0.995 ± 0.015 |
| TTATGTCAAA | 1.01 ± 0.025 |
| TTATGTCAGG | 1.04 ± 0.015 |

| Sequence | switch fluorescence ratio |
| --- | --- |
| TTATGTGAGA | 1.01 ± 0.044 |
| TTATGTGATA | 0.95571 ± 0.00088 |
| TTATGTGGTG | 0.974 ± 0.014 |
| TTATGTTCAG | 1.04 ± 0.034 |
| TTATGTTCGC | 0.975 ± 0.034 |
| TTATGTTGGG | 1.013 ± 0.0047 |
| TTATGTTTGT | 1.01 ± 0.033 |
| TTATGTTTTG | 0.999 ± 0.026 |
| TTATTAAACG | 1.015 ± 0.0029 |
| TTATTACCGA | 1.056 ± 0.0098 |
| TTATTACCTA | 1.06 ± 0.049 |
| TTATTAGATG | 0.997 ± 0.018 |
| TTATTAGATT | 1.01 ± 0.005 |
| TTATTAGCAA | 1.93 ± 1.4 |
| TTATTAGGGT | 1 ± 0.022 |
| TTATTATAGT | 1 ± 0.015 |
| TTATTATGGA | 1.02 ± 0.011 |
| TTATTATTT | 0.994 ± 0.11 |
| TTATTCAAAT | 1.02 ± 0.035 |
| TTATTCGGGA | 1.02 ± 0.031 |
| TTATTCTCAC | 1.031 ± 0.0064 |
| TTATTCTGCT | 1.03 ± 0.03 |
| TTATTGAAA | 1.023 ± 0.0033 |
| TTATTGAAAA | 1 ± 0.032 |
| TTATTGACGT | 1.003 ± 0.0024 |
| TTATTGGCAA | 1.29 ± 0.34 |

| Sequence | switch fluorescence ratio |
| --- | --- |
| TTATTGTAT | 0.988 ± 0.043 |
| TTATTGTGCT | 0.983 ± 0.031 |
| TTATTGTGGA | 0.9885 ± 0.0023 |
| TTATTGTTGG | 0.974 ± 0.014 |
| TTATTGTTGT | 1 ± 0.014 |
| TTATTTAATT | 0.998 ± 0.027 |
| TTATTTAGAC | 1 ± 0.024 |
| TTATTTAGGA | 0.989 ± 0.027 |
| TTATTTCATG | 0.984 ± 0.022 |
| TTATTTGAAT | 1.011 ± 0.0027 |
| TTATTTGGGG | 1.01 ± 0.056 |
| TTATTTGTGT | 0.987 ± 0.042 |
| TTATTTTCGT | 0.973 ± 0.018 |
| TTATTTTGAC | 1 ± 0.023 |
| TTATTTTTAG | 1.01 ± 0.035 |
| TTATTTTTGT | 1.01 ± 0.026 |
| TTCAAAATAG | 1.12 ± 0.15 |
| TTCAAAGAGT | 0.994 ± 0.019 |
| TTCAAAGGCC | 0.981 ± 0.049 |
| TTCAAAGGGG | 1.09 ± 0.24 |
| TTCAAAGGTG | 1.41 ± 0.16 |
| TTCAAGACGG | 0.995 ± 0.023 |
| TTCAAGTTAG | 1 ± 0.035 |
| TTCAATATGT | 0.991 ± 0.049 |
| TTCAATGGAA | 1.03 ± 0.011 |
| TTCAATGGCT | 0.983 ± 0.046 |

| Sequence | switch fluorescence ratio |
| --- | --- |
| TTCAATGGGC | 0.998 ± 0.064 |
| TTCAATTGGT | 0.974 ± 0.033 |
| TTCAATTTGC | 1.02 ± 0.033 |
| TTCACGGACC | 1.455 ± 0.013 |
| TTCAGAAATT | 1.01 ± 0.011 |
| TTCAGAGACT | 1 ± 0.034 |
| TTCAGATACC | 1.04 ± 0.017 |
| TTCAGCATTT | 1.1 ± 0.068 |
| TTCAGCGCGA | 1.14 ± 0.014 |
| TTCAGGACTC | 0.973 ± 0.045 |
| TTCAGGATTA | 0.9939 ± 0.0091 |
| TTCAGGGGAG | 0.975 ± 0.04 |
| TTCAGGGGCG | 1.07 ± 0.13 |
| TTCAGGGTAT | 1.01 ± 0.037 |
| TTCAGGTAAC | 1.054 ± 0.0022 |
| TTCAGGTGGT | 1.06 ± 0.13 |
| TTCAGGTTCT | 1 ± 0.04 |
| TTCAGGTTTC | 1 ± 0.037 |
| TTCAGTGTCG | 1.01 ± 0.073 |
| TTCAGTTAAT | 1 ± 0.0032 |
| TTCATATAGG | 0.984 ± 0.021 |
| TTCATATATG | 0.989 ± 0.018 |
| TTCATATTG | 0.9923 ± 0.0019 |
